Results on one substance are retold here after US8178324B2, “Deracemisation of amines” (Ingenza Limited, priority 2002, dated 2012).

The test system of the series is CCCCCN. Description: Colorimetric hydrogen peroxide amine oxidase assay, purified mutant enzyme (N336S). The series is classed as biochemical, Aspergillus niger. The note with it: other: purified N336S mutant; 30.0 °C. The procedure:
The wild-type enzyme was also purified by the same protocol and the two enzymes compared for substrate specificity and enantioselectivity.
The mutated gene was also sequenced and the sequence is shown in SEQ ID NO: 2. There was a single amino acid change from the wild-type enzyme with serine replacing asparagine at position 336.
LB medium (6×300 ml) containing ampicillin (100 μg·ml^−1) in 1 L baffled flasks was inoculated with a single colony of monoamine oxidase mutant from an LB agar plate. Cultures were incubated at 30° C. for 22 hours (OD600˜3.6) then harvested and washed with phosphate buffer (50 mM, pH 8) to yield a yellow-brown pellet (11.2 g).
The pellet was resuspended in Tris/HCl buffer (25 mM, pH 7.8, 30 ml) and sonicated on ice (30 s on, 30 s off for 10 minutes). The suspension was then centrifuged (20,000 rpm, 4° C.) until clear supernatant was obtained and the supernatant dialysed against Tris/HCl buffer (25 mM, pH 7.8). […]
The spectrophotometer was blanked against assay mixture and HRP. Enzyme was added and the absorbance at 500 nm measured at 3 s intervals for a 10 minute period.
The Km values were calculated using ‘KaleidaGraph for Windows’ (Synergy Software). For calculation of the kcat, the active enzyme concentration was determined by estimating the FAD content from the absorbance at 458 nm using an extinction coefficient of 11 mM^−1 cm^−1 (see ref 12).

Usually Km stands for the concentration of substrate that gives half-maximal velocity. A word on the kcat: it is the maximal rate divided by the concentration of active sites.

Take “mutant A. niger monoamine oxidase (N336S) (Aspergillus niger; A300V/K348M/L304V/N336S/R450G)”: the Km is 400 µM and the turnover number (kcat) came out at 1.93 s⁻¹.
